B1: IPK from Candidatus methanomethylophilus alvus (CMA) (Candidatus Methanomethylophilus alvi Mx1201; I74A) (protein)
chain: MILIKLGGSVITDKSEYHKFNKETVSRLADEIRRSGQDVMVVHGAGSFGHVIAKKYAIQDGHVDDGQIPAAARAMCDTRELSSMVVEELLAQGIPAVSVAPGSCFVMEDGKLIVDNEEPIRRLADLGIMPVMFGDVVPDRKKGFAIVSGDQCMEVLCRMFDPEKVVFVSDIDGLYTADPKTDKKARLIGEVTRKKLDEALTDITVADVTGGVHSKMEAMLRMTDRNRRCYLVNGNAPNRLYSLLKGETVTCTVAKGGME
B2: IPK from Candidatus methanomethylophilus alvus (CMA) (Candidatus Methanomethylophilus alvi Mx1201; V208A) (protein)
chain: MILIKLGGSVITDKSEYHKFNKETVSRLADEIRRSGQDVMVVHGAGSFGHVIAKKYAIQDGHVDDGQIPAAARIMCDTRELSSMVVEELLAQGIPAVSVAPGSCFVMEDGKLIVDNEEPIRRLADLGIMPVMFGDVVPDRKKGFAIVSGDQCMEVLCRMFDPEKVVFVSDIDGLYTADPKTDKKARLIGEVTRKKLDEALTDITVADATGGVHSKMEAMLRMTDRNRRCYLVNGNAPNRLYSLLKGETVTCTVAKGGME
B3: IPK from Candidatus methanomethylophilus alvus (CMA) (Candidatus Methanomethylophilus alvi Mx1201; I146A) (protein)
chain: MILIKLGGSVITDKSEYHKFNKETVSRLADEIRRSGQDVMVVHGAGSFGHVIAKKYAIQDGHVDDGQIPAAARIMCDTRELSSMVVEELLAQGIPAVSVAPGSCFVMEDGKLIVDNEEPIRRLADLGIMPVMFGDVVPDRKKGFAAVSGDQCMEVLCRMFDPEKVVFVSDIDGLYTADPKTDKKARLIGEVTRKKLDEALTDITVADVTGGVHSKMEAMLRMTDRNRRCYLVNGNAPNRLYSLLKGETVTCTVAKGGME
B4: IPK from Candidatus methanomethylophilus alvus (CMA) (Candidatus Methanomethylophilus alvi Mx1201; I74A/V208A) (protein)
chain: MILIKLGGSVITDKSEYHKFNKETVSRLADEIRRSGQDVMVVHGAGSFGHVIAKKYAIQDGHVDDGQIPAAARAMCDTRELSSMVVEELLAQGIPAVSVAPGSCFVMEDGKLIVDNEEPIRRLADLGIMPVMFGDVVPDRKKGFAIVSGDQCMEVLCRMFDPEKVVFVSDIDGLYTADPKTDKKARLIGEVTRKKLDEALTDITVADATGGVHSKMEAMLRMTDRNRRCYLVNGNAPNRLYSLLKGETVTCTVAKGGME
B5: IPK from Candidatus methanomethylophilus alvus (CMA) (Candidatus Methanomethylophilus alvi Mx1201; T209A) (protein)
chain: MILIKLGGSVITDKSEYHKFNKETVSRLADEIRRSGQDVMVVHGAGSFGHVIAKKYAIQDGHVDDGQIPAAARIMCDTRELSSMVVEELLAQGIPAVSVAPGSCFVMEDGKLIVDNEEPIRRLADLGIMPVMFGDVVPDRKKGFAIVSGDQCMEVLCRMFDPEKVVFVSDIDGLYTADPKTDKKARLIGEVTRKKLDEALTDITVADVAGGVHSKMEAMLRMTDRNRRCYLVNGNAPNRLYSLLKGETVTCTVAKGGME
B6: IPK from Candidatus methanomethylophilus alvus (CMA) (Candidatus Methanomethylophilus alvi Mx1201; T209S) (protein)
chain: MILIKLGGSVITDKSEYHKFNKETVSRLADEIRRSGQDVMVVHGAGSFGHVIAKKYAIQDGHVDDGQIPAAARIMCDTRELSSMVVEELLAQGIPAVSVAPGSCFVMEDGKLIVDNEEPIRRLADLGIMPVMFGDVVPDRKKGFAIVSGDQCMEVLCRMFDPEKVVFVSDIDGLYTADPKTDKKARLIGEVTRKKLDEALTDITVADVSGGVHSKMEAMLRMTDRNRRCYLVNGNAPNRLYSLLKGETVTCTVAKGGME

How the values were obtained:
[1] = molecular target: T1, IPK from Candidatus methanomethylophilus alvus (CMA) (Methanomethylophilus alvi, UniProt M9SEQ1); test: X-ray crystal structure, […] Å; type: binding; details: alkyl-P site, monomer A, partial occupancy with IP
T1 sequence (M9SEQ1 1-259): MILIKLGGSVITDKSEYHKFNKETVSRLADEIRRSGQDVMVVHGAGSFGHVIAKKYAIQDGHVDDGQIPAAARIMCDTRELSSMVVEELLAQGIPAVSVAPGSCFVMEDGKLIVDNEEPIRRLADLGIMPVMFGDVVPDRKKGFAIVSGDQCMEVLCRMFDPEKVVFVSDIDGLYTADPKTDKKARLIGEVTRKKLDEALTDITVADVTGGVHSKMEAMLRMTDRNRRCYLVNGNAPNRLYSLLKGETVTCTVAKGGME

[2] = substrate: C=C(C)CCOP(=O)(O)O; test: PK-LDH coupled assay, A340; type: biochemical, Methanomethylophilus alvi; details: 2 mM ATP, 5 mM MgCl2, 25 mM Tris pH 7.8, 37 °C
[3] = substrate: Cc1ccc(COP(=O)(O)O)cc1; test: PK-LDH coupled assay, A340; type: biochemical, Methanomethylophilus alvi; details: 2 mM ATP, 5 mM MgCl2, 25 mM Tris pH 7.8, 37 °C
[4] = substrate: O=P(O)(O)OCc1ccccc1; test: PK-LDH coupled assay, A340; type: biochemical, Methanomethylophilus alvi; details: 2 mM ATP, 5 mM MgCl2, 25 mM Tris pH 7.8, 37 °C

Molecule	X-ray crystal structure, 2.5 Å [1]	Km [2]	kcat [2]	kcat/Km [2]	Km [3]	kcat [3]	kcat/Km [3]	Km [4]	kcat [4]	kcat/Km [4]
C=C(C)CCOP(=O)(O)OP(=O)(O)O [IPP]	electron density for both pairs of reagents (IP/ATP and IPP/ADP) can be modeled	–	–	–	–	–	–	–	–	–
B1	–	220 ± 20 µM	42 ± 2 s⁻¹	190000 M⁻¹ s⁻¹	80 ± 20 µM	1.05 ± 0.07 s⁻¹	13000 M⁻¹ s⁻¹	110 ± 30 µM	0.41 ± 0.02 s⁻¹	4000 M⁻¹ s⁻¹
B2	–	75 ± 10 µM	5.4 ± 0.1 s⁻¹	72000 M⁻¹ s⁻¹	–	–	–	–	–	–
B3	–	160 ± 20 µM	68 ± 2 s⁻¹	430000 M⁻¹ s⁻¹	–	–	–	–	–	–
B4	–	750 ± 80 µM	4.9 ± 0.2 s⁻¹	6500 M⁻¹ s⁻¹	–	–	–	–	–	–
B5	–	50 ± 20 µM	0.038 ± 0.002 s⁻¹	800 M⁻¹ s⁻¹	–	–	–	–	–	–
B6	–	37 ± 8 µM	7.2 ± 0.3 s⁻¹	200000 M⁻¹ s⁻¹	–	–	–	–	–	–
